Experimental data from patent US7569579B2, “Cyclopropyl compounds as ccr5 antagonists” (SmithKline Beecham Corporation, priority 2002, dated 2009).

Biological target: T1, human CCR5 chemokine receptor (Homo sapiens, UniProt P51681)
T1 construct: host or cells: Chinese Hamster Ovary (CHO) cells; membranes prepared from the cell pellet
Assay: CC-Chemokine Receptor-5 binding by scintillation proximity assay (CCR5 SPA), displacement of 125I-MIP1α
Conditions: standard compound, 14-point concentration-response curve in triplicate
Description: CC-Chemokine Receptor-5 Binding by Scintillation Proximity Assay (CCR5 SPA) Scintillation Proximity Assay for the Human CC-Chemokine Receptor, CCR-5
This protocol describes a high-throughput screen using SPA binding to identify compounds that inhibit binding of ^125I-MIP1α to the human CCR5 chemokine receptor.
Human CCR5 receptors were expressed in Chinese Hamster Ovary (CHO) cells, registration # 12025. Cells were grown in suspension and a 50 to 80 ml CCR5 cell pellet was prepared. […]
The saturation curve binding experiment is performed by adding varying amounts of [^125I]MIP1α (0-8.5 nM to membranes and beads in concentrations chosen from the optimal protein/bead ratio. The data is analyzed using a non-linear curve-fitting program. The Kd and Bmax are derived from the curve. […]

T1 sequence (P51681 whole entry): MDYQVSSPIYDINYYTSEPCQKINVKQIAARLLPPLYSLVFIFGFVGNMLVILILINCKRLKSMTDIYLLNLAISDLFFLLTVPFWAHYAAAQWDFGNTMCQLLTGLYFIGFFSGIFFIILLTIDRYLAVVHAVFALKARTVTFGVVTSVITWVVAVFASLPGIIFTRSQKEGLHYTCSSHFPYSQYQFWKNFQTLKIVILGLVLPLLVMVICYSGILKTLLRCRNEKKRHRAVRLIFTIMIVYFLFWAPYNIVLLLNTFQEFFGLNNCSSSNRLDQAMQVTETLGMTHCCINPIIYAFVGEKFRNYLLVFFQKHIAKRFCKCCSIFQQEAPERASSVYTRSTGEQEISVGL

MIP1α: standard compound of the CCR5 SPA; natural chemokine ligand of CCR5 (Peprotech)
average historical pKi: 7.6
